Assay results from article PMC3501478, “Structure of the Human Discs Large 1 PDZ2– Adenomatous Polyposis Coli Cytoskeletal Polarity Complex: Insight into Peptide Engagement and PDZ Clustering” (PLoS ONE, 2012).
No end group written: not given here. TMR = tetramethyl rhodamine

Target: T1, human Discs Large 1 (hDlg1) PDZ2 domain, residues 310-407 (human, UniProt Q12959 310-407)
T1 construct: N-terminal gly-ser cloning artifact left on the PDZ2 domain after thrombin cleavage of GST; human Discs Large 1 (Dlg1), PDZ2 domain, residues 310-407; synthetic gene with E. coli codon usage in pGEX-2T; In the final model chain A holds residues 310-406, with R310 modelled as alanine; also called hDlg PDZ2; source: E. coli BL21 DE3 pLysS, purified (Glutathione Sepharose, thrombin cleavage, SP …)
Test: crystal structure; 1.4 mM Dlg1 PDZ2 incubated with 1.7 mM APC C-terminal peptide (1:1.2) in 100 mM NaCl, 25 mM Tris pH 7.0, 0.1% beta-mercaptoethanol; hanging drop, 200 mM sodium acetate, 100 mM sodium cacodylate pH 6.25, 28% PEG 8000, 20°C; space group P212121, 2.0 Å
Conditions: both partners purified

T1 sequence (Q12959 other isoform, or with tags, fused parts or gaps): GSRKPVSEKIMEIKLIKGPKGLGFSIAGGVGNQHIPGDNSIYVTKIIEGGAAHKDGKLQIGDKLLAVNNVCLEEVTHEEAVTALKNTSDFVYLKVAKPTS

binding result: binds
B1: APC C-terminal peptide RHSGSYLVTSV (residues 2833-2843) with N-terminal tetramethyl rhodamine (peptide)
peptide: {TMR}-RHSGSYLVTSV
notes: human Adenomatous Polyposis Coli (APC), C-terminal 11 residues 2833-2843 of the 2843 amino acid protein; Only residues 2838-2843 are seen in the electron density; the TMR fluorophore and the N-terminal five residues are not; also called APC peptide; TMR-APC peptide; source: synthetic peptide (Yale Keck Biotechnology Resource Laboratory), purified by HPLC
